Experimental data reported in US20090012270A1 (MEDICAL RESEARCH COUNCIL, published 2009).

Target: T1, mouse OX2 (mouse, UniProt O54901 31-278)
T1 construct: whole, on cells; also called ligand OX2 (mouse); normally expressed mouse OX2
T1 sequence (looked up): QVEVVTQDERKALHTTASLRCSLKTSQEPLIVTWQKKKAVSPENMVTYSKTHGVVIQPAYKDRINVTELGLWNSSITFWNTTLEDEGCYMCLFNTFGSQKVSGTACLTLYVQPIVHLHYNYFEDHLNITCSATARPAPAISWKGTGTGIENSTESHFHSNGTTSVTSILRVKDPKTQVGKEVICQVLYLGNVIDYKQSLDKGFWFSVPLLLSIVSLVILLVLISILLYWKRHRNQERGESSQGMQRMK
Assay: immunoperoxidase staining of mouse spleen sections, detected with anti-human Fc
Description: To determine function of OX2-OX2R interaction in vitro and in vivo, an adenovirus construct was prepared that produced in soluble form, the extracellular region of OX2RH1 fused to human IgG. A control construct was prepared that produced in soluble form, only the human IgG backbone. In the first instance, supernatants containing these fusion proteins were produced by cellular infection in vitro to test whether the OX2R fusion protein had biological function on the basis of binding to normally expressed mouse OX2. In the first series of studies, tissue sections of mouse spleen from normal as well as OX2-gene knockout (KO) mice, were prepared and OX2R, or control fusion proteins were added, and these reagents detected by addition of an antibody binding to the human Fc portion of the fusion protein, and subsequent immunoperoxidase staining procedures to reveal binding. Weak binding only of the OX2R fusion protein, and only in normal but not OX2 KO mice, was detected on follicular dendritic cells and endothelial cells. Both cell types are know to express very high levels of the ligand OX2.

B1: human IgG-mouse OX2RH1 fusion protein (extracellular region of OX2RH1 fused to human IgG) (Fc fusion)
chain: TDKNQTTQNNSSSPLTQVNTTVSVQIGTKALLCCFSIPLTKAVLITWIIKLRGLPSCTIAYKVDTKTNETSCLGRNITWASTPDHSPELQISAVTLQHEGTYTCETVTPEGNFEKNYDLQVLVPPEVTYFPEKNRSAVCEAMAGKPAAQISWSPDGDCVTTSESHSNGTVTVRSTCHWEQNNVSDVSCIVSHLTGNQSLSIELSRGGNQSLRP
notes: Soluble protein from cells infected with an adenovirus construct; also called OX2R fusion protein; Ig-OX2R fusion protein; not shown: human IgG backbone with the human Fc portion
  binding result: binds
